From paper PMC12401477 (Cell reports, 2025)

What was measured:
mass photometry [1] = biological target: the molecule itself; assay: mass photometry
mass photometry [2] = biological target: the molecule itself; assay: mass photometry; remark: listed apart in the source

B1: N-terminally extended IRF7 isoform (exIRF7, intron 1 retained) with C-terminal 3xFLAG tag (natural protein, human, UniProt Q92985-4 1-516, looked up)
chain: MPVPERPAAGPDSPRPGTRRAAPRVLFGEWLLGEISSGCYEGLQWLDEARTCFRVPWKHFARKDLSEADARIFKAWAVARGRWPPSSRGGGPPPEAETAERAGWKTNFRCALRSTRRFVMLRDNSGDPADPHKVYALSRELCWREGPGTDQTEAEAPAAVPPPQGGPPGPFLAHTHAGLQAPGPLPAPAGDKGDLLLQAVQQSCLADHLLTASWGADPVPTKAPGEGQEGLPLTGACAGGPGLPAGELYGWAVETTPSPGPQPAALTTGEAAAPESPHQAEPYLSPSPSACTAVQEPSPGALDVTIMYKGRTVLQKVVGHPSCTFLYGPPDPAVRATDPQQVAFPSPAELPDQKQLRYTEELLRHVAPGLHLELRGPQLWARRMGKCKVYWEVGGPPGSASPSTPACLLPRNCDTPIFDFRVFFQELVEFRARQRRGSPRYTIYLGFGQDLSAGRPKEKSLVLVKLEPWLCRVHLEGTQREGVSSLDSSSLSLCLSSANSLYDDIECFLMELEQPA
modifications: phosphorylated (sites not given)
stoichiometry N (mass photometry [1]): 2 | fold tighter Kd of dimerization than cIRF7 (mass photometry [2]): ~6 fold
